Laboratory results: US20100040754A1

Target: hT1R2-hT1R3, human sweetness receptor (human) (UniProt Q8TE23)
Assay: cell-based or functional assay

Sequence of UniProt Q8TE23 (Q8TE23 20-839, chain 1 of 2): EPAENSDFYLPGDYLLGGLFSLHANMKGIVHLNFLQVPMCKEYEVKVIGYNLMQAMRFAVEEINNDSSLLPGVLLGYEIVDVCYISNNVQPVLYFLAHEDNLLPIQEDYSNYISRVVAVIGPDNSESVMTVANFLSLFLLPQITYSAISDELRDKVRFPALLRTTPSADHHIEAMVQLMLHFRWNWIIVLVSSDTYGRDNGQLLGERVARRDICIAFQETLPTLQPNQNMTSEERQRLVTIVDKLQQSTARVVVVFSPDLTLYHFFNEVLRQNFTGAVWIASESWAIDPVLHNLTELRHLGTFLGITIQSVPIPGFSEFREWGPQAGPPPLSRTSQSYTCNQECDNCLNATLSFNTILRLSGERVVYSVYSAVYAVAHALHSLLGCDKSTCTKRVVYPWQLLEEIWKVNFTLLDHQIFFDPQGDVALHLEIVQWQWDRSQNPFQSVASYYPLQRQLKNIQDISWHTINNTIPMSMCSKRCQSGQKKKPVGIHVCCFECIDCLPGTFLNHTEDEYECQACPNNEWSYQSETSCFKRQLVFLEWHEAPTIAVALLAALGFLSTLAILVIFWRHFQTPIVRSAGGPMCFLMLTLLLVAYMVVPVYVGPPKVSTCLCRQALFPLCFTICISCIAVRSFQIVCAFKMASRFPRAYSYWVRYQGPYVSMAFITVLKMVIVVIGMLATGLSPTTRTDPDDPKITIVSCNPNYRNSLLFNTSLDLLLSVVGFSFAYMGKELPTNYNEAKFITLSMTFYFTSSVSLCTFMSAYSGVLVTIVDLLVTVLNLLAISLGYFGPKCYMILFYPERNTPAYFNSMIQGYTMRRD
Sequence of UniProt Q8TE23 (Q7RTX0 21-852, chain 2 of 2, further chain): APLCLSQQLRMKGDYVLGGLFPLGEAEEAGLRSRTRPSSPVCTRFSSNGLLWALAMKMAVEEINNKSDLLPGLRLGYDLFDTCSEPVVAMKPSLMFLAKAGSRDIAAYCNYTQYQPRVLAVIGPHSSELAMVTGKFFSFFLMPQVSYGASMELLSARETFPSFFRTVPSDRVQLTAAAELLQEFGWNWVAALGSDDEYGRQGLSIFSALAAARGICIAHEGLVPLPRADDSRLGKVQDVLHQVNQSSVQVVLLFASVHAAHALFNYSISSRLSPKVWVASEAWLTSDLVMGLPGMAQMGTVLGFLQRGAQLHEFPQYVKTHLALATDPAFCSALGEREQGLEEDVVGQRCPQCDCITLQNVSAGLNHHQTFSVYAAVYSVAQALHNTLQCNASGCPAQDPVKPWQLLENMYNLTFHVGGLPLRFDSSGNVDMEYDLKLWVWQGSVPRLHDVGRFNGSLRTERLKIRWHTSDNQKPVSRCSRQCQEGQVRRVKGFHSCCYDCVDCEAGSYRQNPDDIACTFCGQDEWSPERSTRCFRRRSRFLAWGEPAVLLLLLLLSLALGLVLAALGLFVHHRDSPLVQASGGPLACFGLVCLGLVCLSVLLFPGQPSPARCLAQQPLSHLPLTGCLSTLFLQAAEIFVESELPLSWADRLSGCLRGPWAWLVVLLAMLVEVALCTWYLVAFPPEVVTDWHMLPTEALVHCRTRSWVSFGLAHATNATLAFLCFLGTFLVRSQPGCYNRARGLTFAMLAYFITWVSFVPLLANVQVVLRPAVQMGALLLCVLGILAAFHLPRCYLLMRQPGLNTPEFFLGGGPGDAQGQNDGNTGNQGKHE

neoculin (heterodimer of polypeptide NAS and polypeptide NBS) (from UniProt Q6F495 23-135; P19667 23-136) (ligand)
response of the cells around pH 7, against the response in the acidic region (fraction of the response): 0.5 | response of the cells around pH 8, against the response in the acidic region (fraction of the response): 0.1
